Like-named read-outs stand apart in the source and are kept apart here.
What was measured:
[1] = molecular target: PKR (Homo sapiens) (UniProt P19525); settings: cited from earlier work
[2] = molecular target: PKR (Homo sapiens) (UniProt P19525); settings: cited from earlier work; remark: listed apart in the source
[3] = molecular target: PKR (Homo sapiens) (UniProt P19525); settings: cited from earlier work; remark: listed apart in the source
[4] = molecular target: bovine serum albumin (BSA) (Bos taurus, UniProt P02769); assay: fluorescence polarization, direct titration; assay type: binding
[5] = molecular target: T1, PKR (double-stranded RNA-activated protein kinase) (Homo sapiens, UniProt P19525); assay: fluorescence polarization, direct titration; assay type: binding
[6] = molecular target: T1, PKR (double-stranded RNA-activated protein kinase); assay: radiolabeled ATP binding, ZipTip-C4 separation

Sequence of bovine serum albumin (BSA) (P02769 25-607): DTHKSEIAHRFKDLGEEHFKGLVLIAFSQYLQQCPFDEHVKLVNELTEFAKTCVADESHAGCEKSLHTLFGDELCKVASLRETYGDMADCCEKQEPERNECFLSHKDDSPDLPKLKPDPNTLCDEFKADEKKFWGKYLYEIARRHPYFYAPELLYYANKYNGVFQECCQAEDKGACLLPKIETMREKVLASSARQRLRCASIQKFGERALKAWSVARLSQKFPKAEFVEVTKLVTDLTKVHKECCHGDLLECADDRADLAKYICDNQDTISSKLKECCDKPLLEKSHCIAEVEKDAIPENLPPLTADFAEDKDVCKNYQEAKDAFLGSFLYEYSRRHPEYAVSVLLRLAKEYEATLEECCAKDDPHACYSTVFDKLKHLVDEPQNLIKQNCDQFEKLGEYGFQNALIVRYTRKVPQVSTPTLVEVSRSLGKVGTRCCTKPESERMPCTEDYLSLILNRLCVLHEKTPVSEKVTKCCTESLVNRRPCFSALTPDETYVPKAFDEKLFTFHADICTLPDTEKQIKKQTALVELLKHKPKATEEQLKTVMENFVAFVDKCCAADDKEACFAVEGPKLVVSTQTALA

PKR (from UniProt P19525)
Kd [1]: 75 µM
Kd [2]: 500 µM
Kd [3]: 20 µM

CC1=CC(C)=[N+]2C1=Cc1ccc(CCCCCCCCCCCCCCCC(=O)O)n1[B-]2(F)F [Bodipy-C16, 4,4-difluoro-5,7-dimethyl-4-bora-3a,4a-diaza-s-indacene-3-hexadecanoic acid]
Kd [4]: 0.0292 ± 0.00185 µM
Kd [5]: 0.0232 ± 0.00128 µM

Nc1ncnc2c1ncn2[C@@H]1O[C@H](COP(=O)(O)OP(=O)(O)OP(=O)(O)O)[C@@H](O)[C@H]1O [ATP]
% bound [6]: 16.61 % bound

— PMC3035770 (Biochemistry, 2011)
